Experimental data reported in PMC3005147.

Target: human UbcH5c, full-length (aa 1-147) (human) (UniProt P61077)
Test: ITC

Substance: human E4B U-box domain (aa 1208-1302) (from UniProt O95155 1208-1302) (domain or fragment)
- Kd: 67.1 µM
- dH: 2.9 kcal/mol
- stoichiometry N: 0.99
